Results from article PMC11417369, “DNA sequence and chromatin differentiate sequence-specific transcription factor binding in the human malaria parasite Plasmodium falciparum”.

B1: CACACA_negctrl_site427 (dsDNA)
DNA 1: TTTATAAATTCTCTTTTTAAAAAATATTTTTATACT
DNA 2: AGTATAAAAATATTTTTTAAAAAGAGAATTTATAAA
B2: CACACA_negctrl_site213 (dsDNA)
DNA 1: ATAAATATATGGTTTCATTATATTAAATTCAATTTA
DNA 2: TAAATTGAATTTAATATAATGAAACCATATATTTAT
B3: CACACA_negctrl_site1402 (dsDNA)
DNA 1: TTATTATTCTTAAGGATATAACAAAAAAGAAAAATT
DNA 2: AATTTTTCTTTTTTGTTATATCCTTAAGAATAATAA
B4: CACACA_negctrl_site454 (dsDNA)
DNA 1: TATTGTAATATTATATATATCTATTATGTATATAAA
DNA 2: TTTATATACATAATAGATATATATAATATTACAATA
B5: CACACA_negctrl_site154 (dsDNA)
DNA 1: TTTTAAAAAATATAATATAATATAATATAAAATAAA
DNA 2: TTTATTTTATATTATATTATATTATATTTTTTAAAA
B6: CACACA_negctrl_site624 (dsDNA)
DNA 1: TTATAATAAATATTCATATGTTCAAATATATATATA
DNA 2: TATATATATATTTGAACATATGAATATTTATTATAA
B7: CACACA_negctrl_site152 (dsDNA)
DNA 1: TTTTAAATAATTCGTAATTATAATTATGGAAAAAAG
DNA 2: CTTTTTTCCATAATTATAATTACGAATTATTTAAAA
B8: CACACA_negctrl_site283 (dsDNA)
DNA 1: ACATTCTGATGGTGATTATTAATTATTACAAAAATT
DNA 2: AATTTTTGTAATAATTAATAATCACCATCAGAATGT
B9: CACACA_negctrl_site1262 (dsDNA)
DNA 1: ATATAAAGAAATTAATTTTTCAACAATAAAAATATA
DNA 2: TATATTTTTATTGTTGAAAAATTAATTTCTTTATAT
B10: CACACA_negctrl_site731 (dsDNA)
DNA 1: TCTAAACAAATTAATAAAATAAGTATTCAAAATTAT
DNA 2: ATAATTTTGAATACTTATTTTATTAATTTGTTTAGA
B11: CACACA_negctrl_site945 (dsDNA)
DNA 1: ATATAAATAAATTAGTGAAAAAAAAAAAATTTTTTT
DNA 2: AAAAAAATTTTTTTTTTTTCACTAATTTATTTATAT
B12: CACACA_negctrl_site1228 (dsDNA)
DNA 1: ATATTTTGGGGACTTTTTAAAAAAGAAGTATTAAAA
DNA 2: TTTTAATACTTCTTTTTTAAAAAGTCCCCAAAATAT
B13: CACACA_negctrl_site1791 (dsDNA)
DNA 1: TTTTAAAAAAAAAAAATAAATAAATAAGATATTATC
DNA 2: GATAATATCTTATTTATTTATTTTTTTTTTTTAAAA
B14: CACACA_negctrl_site332 (dsDNA)
DNA 1: TCTTTTAAAAATATAAAAAGGAATATATAAAAATGT
DNA 2: ACATTTTTATATATTCCTTTTTATATTTTTAAAAGA
B15: CACACA_negctrl_site1724 (dsDNA)
DNA 1: TTTTTCTTTTTTTTTTTAATAATATATAACAAATTT
DNA 2: AAATTTGTTATATATTATTAAAAAAAAAAAGAAAAA
B16: CACACA_negctrl_site970 (dsDNA)
DNA 1: ATATTTTTATGTACTTCAAAAAAAAAGAAAAACAAA
DNA 2: TTTGTTTTTCTTTTTTTTTGAAGTACATAAAAATAT
B17: CACACA_negctrl_site500 (dsDNA)
DNA 1: TAATTAAAAAATAAAAAAAAAAAAAATTAAAACAAA
DNA 2: TTTGTTTTAATTTTTTTTTTTTTTATTTTTTAATTA
B18: CACACA_negctrl_site1416 (dsDNA)
DNA 1: TTTTTTGTACCAAAAAAAAAAAAAAGAAAAAAAAAC
DNA 2: GTTTTTTTTTCTTTTTTTTTTTTTTGGTACAAAAAA
B19: CACACA_negctrl_site1813 (dsDNA)
DNA 1: TTTTTATTCGATGATCAAATAGGTATATACAAAAAA
DNA 2: TTTTTTGTATATACCTATTTGATCATCGAATAAAAA
B20: CACACA_negctrl_site1036 (dsDNA)
DNA 1: ATATTGTATTATCTTTATGTACCAAAAAAAAAAAAA
DNA 2: TTTTTTTTTTTTTGGTACATAAAGATAATACAATAT
B21: CACACA_negctrl_site941 (dsDNA)
DNA 1: ATATTACGCACAAAAAAAAAAAAAAAAAAAAAAAAA
DNA 2: TTTTTTTTTTTTTTTTTTTTTTTTTGTGCGTAATAT
B22: CACACA_negctrl_site1666 (dsDNA)
DNA 1: AAAAAAAAAAAAAAATTAAAGTAATGGAAAAAAAAA
DNA 2: TTTTTTTTTCCATTACTTTAATTTTTTTTTTTTTTT
B23: CACACA_negctrl_site801 (dsDNA)
DNA 1: GATTTATATATATAAAATAATTGAATATTTTCTTTT
DNA 2: AAAAGAAAATATTCAATTATTTTATATATATAAATC
B24: CACACA_negctrl_site122 (dsDNA)
DNA 1: TCTGGATTGGATTACAAGAAAATAAAATATAAAATA
DNA 2: TATTTTATATTTTATTTTCTTGTAATCCAATCCAGA
B25: CACACA_negctrl_site87 (dsDNA)
DNA 1: TCTTTCTAAATCTTACAAATTACTAAAATATTTATA
DNA 2: TATAAATATTTTAGTAATTTGTAAGATTTAGAAAGA
B26: CACACA_negctrl_site1698 (dsDNA)
DNA 1: TTATAATAAAAAAATTCCTAAGTCCGTATATATTAT
DNA 2: ATAATATATACGGACTTAGGAATTTTTTTATTATAA
B27: CACACA_negctrl_site466 (dsDNA)
DNA 1: ATAAAAGAATTAAATAATCAAAATGATTATTTTATA
DNA 2: TATAAAATAATCATTTTGATTATTTAATTCTTTTAT
B28: CACACA_negctrl_site651 (dsDNA)
DNA 1: TTTGGAAAGCGTGATTTTTGACAAACACAAAAAAAA
DNA 2: TTTTTTTTGTGTTTGTCAAAAATCACGCTTTCCAAA
B29: CACACA_negctrl_site1736 (dsDNA)
DNA 1: ATTGAAAATTATTTACCTTCTTTGAAAGAACAAATG
DNA 2: CATTTGTTCTTTCAAAGAAGGTAAATAATTTTCAAT
B30: CACACA_negctrl_site81 (dsDNA)
DNA 1: TTCTGTATAATATAAAAACAAAAATTAAATTAAAAC
DNA 2: GTTTTAATTTAATTTTTGTTTTTATATTATACAGAA
B31: CACACA_negctrl_site1344 (dsDNA)
DNA 1: TTATGTATTCATTTTTTTTAAGCACCCCAAAATGAT
DNA 2: ATCATTTTGGGGTGCTTAAAAAAAATGAATACATAA
B32: CACACA_negctrl_site362 (dsDNA)
DNA 1: TTATTTTTTCTTTTTTTTCTTACCACAAAAATGGAT
DNA 2: ATCCATTTTTGTGGTAAGAAAAAAAAGAAAAAATAA
B33: CACACA_negctrl_site90 (dsDNA)
DNA 1: TTATAATATATATAAAAGAAAAAAAATTATAATATA
DNA 2: TATATTATAATTTTTTTTCTTTTATATATATTATAA
B34: CACACA_negctrl_site80 (dsDNA)
DNA 1: TTTAATAAATAAATAAATAAAATATATTAAAAACCA
DNA 2: TGGTTTTTAATATATTTTATTTATTTATTTATTAAA
B35: CACACA_negctrl_site648 (dsDNA)
DNA 1: AAAAAGAAAAAATATATTCGTCTATTATAAACAATA
DNA 2: TATTGTTTATAATAGACGAATATATTTTTTCTTTTT
B36: CACACA_negctrl_site766 (dsDNA)
DNA 1: TTCTTTCTGTTTTATTTATAATAATTTATGATAAAA
DNA 2: TTTTATCATAAATTATTATAAATAAAACAGAAAGAA
B37: CACACA_negctrl_site1347 (dsDNA)
DNA 1: ATTTTTTTTTTTTTTTTTTTTTTTTTTTAATCTGGA
DNA 2: TCCAGATTAAAAAAAAAAAAAAAAAAAAAAAAAAAT
B38: CACACA_negctrl_site1075 (dsDNA)
DNA 1: AATAAAAAAAAAAAAAAAAAAAAAAAGACACTAAAA
DNA 2: TTTTAGTGTCTTTTTTTTTTTTTTTTTTTTTTTATT
B39: CACACA_negctrl_site1335 (dsDNA)
DNA 1: TAAAATTTTAACAAAAAAAAAAAAAAAAAAAGAAAA
DNA 2: TTTTCTTTTTTTTTTTTTTTTTTTGTTAAAATTTTA
B40: CACACA_negctrl_site575 (dsDNA)
DNA 1: TATTTACAAAAAAAATATAAAAAATATAAAATATAT
DNA 2: ATATATTTTATATTTTTTATATTTTTTTTGTAAATA
B41: CACACA_negctrl_site1769 (dsDNA)
DNA 1: TTTTTACGTAAACAAAATAATTATATAATATTATTT
DNA 2: AAATAATATTATATAATTATTTTGTTTACGTAAAAA
B42: CACACA_negctrl_site918 (dsDNA)
DNA 1: TTTTTTTTTTCTTTTTTTCTCATGAAATTCTAAATG
DNA 2: CATTTAGAATTTCATGAGAAAAAAAGAAAAAAAAAA
B43: CACACA_negctrl_site667 (dsDNA)
DNA 1: TTATATATAAACATAAAAAGAAATATATTATGTATA
DNA 2: TATACATAATATATTTCTTTTTATGTTTATATATAA
B44: CACACA_negctrl_site153 (dsDNA)
DNA 1: CTTGGTAGTTTTTTCTTATAATCTAATTATTAATAA
DNA 2: TTATTAATAATTAGATTATAAGAAAAAACTACCAAG

Molecular target: T1, AP2-LT D1 (Plasmodium falciparum, UniProt Q8IAM1 2520-2577)
T1 sequence: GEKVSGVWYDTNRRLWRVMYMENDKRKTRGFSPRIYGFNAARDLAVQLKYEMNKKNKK
Assay: gcPBM; about 25 ug protein; PBS, 1% milk, 0.2 mg/ml BSA, salmon testes DNA, 0.03% Triton X-100
Settings: tags: N-terminal GST (pGEX-4T-1), kept; label: surface-attached array probe

| Binder | binding signal |
| --- | --- |
| B1 | 8.65 ln median PBM intensity, better of two orientations |
| B2 | 8.57 ln median PBM intensity, better of two orientations |
| B3 | 8.6 ln median PBM intensity, better of two orientations |
| B4 | 8.69 ln median PBM intensity, better of two orientations |
| B5 | 8.59 ln median PBM intensity, better of two orientations |
| B6 | 8.56 ln median PBM intensity, better of two orientations |
| B7 | 8.59 ln median PBM intensity, better of two orientations |
| B8 | 8.72 ln median PBM intensity, better of two orientations |
| B9 | 8.61 ln median PBM intensity, better of two orientations |
| B10 | 8.64 ln median PBM intensity, better of two orientations |
| B11 | 8.67 ln median PBM intensity, better of two orientations |
| B12 | 8.57 ln median PBM intensity, better of two orientations |
| B13 | 8.55 ln median PBM intensity, better of two orientations |
| B14 | 8.73 ln median PBM intensity, better of two orientations |
| B15 | 8.68 ln median PBM intensity, better of two orientations |
| B16 | 8.64 ln median PBM intensity, better of two orientations |
| B17 | 8.72 ln median PBM intensity, better of two orientations |
| B18 | 8.68 ln median PBM intensity, better of two orientations |
| B19 | 8.69 ln median PBM intensity, better of two orientations |
| B20 | 8.63 ln median PBM intensity, better of two orientations |
| B21 | 8.56 ln median PBM intensity, better of two orientations |
| B22 | 8.75 ln median PBM intensity, better of two orientations |

| Binder | binding signal |
| --- | --- |
| B23 | 8.66 ln median PBM intensity, better of two orientations |
| B24 | 8.76 ln median PBM intensity, better of two orientations |
| B25 | 8.61 ln median PBM intensity, better of two orientations |
| B26 | 8.75 ln median PBM intensity, better of two orientations |
| B27 | 8.6 ln median PBM intensity, better of two orientations |
| B28 | 8.66 ln median PBM intensity, better of two orientations |
| B29 | 8.67 ln median PBM intensity, better of two orientations |
| B30 | 8.74 ln median PBM intensity, better of two orientations |
| B31 | 8.67 ln median PBM intensity, better of two orientations |
| B32 | 8.71 ln median PBM intensity, better of two orientations |
| B33 | 8.58 ln median PBM intensity, better of two orientations |
| B34 | 8.65 ln median PBM intensity, better of two orientations |
| B35 | 8.72 ln median PBM intensity, better of two orientations |
| B36 | 8.74 ln median PBM intensity, better of two orientations |
| B37 | 8.7 ln median PBM intensity, better of two orientations |
| B38 | 8.75 ln median PBM intensity, better of two orientations |
| B39 | 8.69 ln median PBM intensity, better of two orientations |
| B40 | 8.62 ln median PBM intensity, better of two orientations |
| B41 | 8.71 ln median PBM intensity, better of two orientations |
| B42 | 8.68 ln median PBM intensity, better of two orientations |
| B43 | 8.75 ln median PBM intensity, better of two orientations |
| B44 | 8.73 ln median PBM intensity, better of two orientations |
